Experimental data taken from patent US20160017037A1 (GlaxoSmithKline, published 2016).
Where a chain is given by its changes, count along the chain named.

T1: Recombinant baboon LAG-3 ECD-His6 (baboon, UniProt P18627 24-433 (human entry))
T1 construct: In-house generated
T1 chain: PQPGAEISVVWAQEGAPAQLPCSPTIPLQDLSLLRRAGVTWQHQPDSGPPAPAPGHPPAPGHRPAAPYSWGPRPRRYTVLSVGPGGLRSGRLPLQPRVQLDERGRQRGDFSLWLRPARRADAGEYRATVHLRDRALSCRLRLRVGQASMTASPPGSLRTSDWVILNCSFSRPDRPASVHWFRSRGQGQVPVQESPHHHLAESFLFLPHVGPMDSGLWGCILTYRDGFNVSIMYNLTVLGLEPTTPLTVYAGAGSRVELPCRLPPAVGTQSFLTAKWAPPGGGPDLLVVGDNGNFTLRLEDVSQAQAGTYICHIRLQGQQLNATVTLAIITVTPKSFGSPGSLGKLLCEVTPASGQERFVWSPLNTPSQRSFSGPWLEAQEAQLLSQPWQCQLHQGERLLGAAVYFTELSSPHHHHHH

T2: Recombinant cynomolgus macaque LAG-3 ECD-His6 (cynomolgus macaque, UniProt P18627 24-433 (human entry))
T2 construct: In-house generated; also called cyno LAG-3
T2 chain: T1 chain with Q188R, E193G, T243A, V288A, N293D, R357H

T3: recombinant soluble human FcγRIIa R131 (human, UniProt P12318 36-218, limits assumed)
T3 sequence (looked up): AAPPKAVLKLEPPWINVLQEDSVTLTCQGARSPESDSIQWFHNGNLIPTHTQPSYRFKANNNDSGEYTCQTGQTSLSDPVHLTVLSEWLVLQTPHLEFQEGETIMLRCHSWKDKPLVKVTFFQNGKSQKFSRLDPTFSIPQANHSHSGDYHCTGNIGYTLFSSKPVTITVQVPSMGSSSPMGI

B1: H5L7BW (antibody, human IgG1, kappa)
heavy: not shown
light: DIQMTQSPSSLSASVGDRVTITCKSSQSLLNPSNQKNYLAWYQQKPGKAPKLLVYFASTRDSGVPSRFSGSGSGTDFTLTISSLQPEDFATYYCLQHFGTPPTFGQGTKLEIKRTVAAPSVFIFPPSDEQLKSGTASVVCLLNNFYPREAKVQWKVDNALQSGNSQESVTEQDSKDSTYSLSSTLTLSKADYEKHKVYACEVTHQGLSSPVTKSFNRGEC
modifications: afucosylated: no fucose on the core carbohydrate structure attached to Asn297
notes: Same plasmids as H5L7, expressed in the BioWa POTELLIGENT (FUT8 knock-out CHO) cell line; also called afucosylated antibody H5L7BW; afucosylated H5L7
B2: H5L7 (antibody, human IgG1, kappa)
heavy: not shown
light: B1 light
notes: Humanised IgG1/kappa of A9H12 (IMP731); also called fucosylated H5L7; non-ADCC enhanced variant H5L7
B3: IMP731 (antibody, human IgG1, kappa)
heavy: not shown
light: DIVMTQSPSSLAVSVGQKVTMSCKSSQSLLNGSNQKNYLAWYQQKPGQSPKLLVYFASTRDSGVPDRFIGSGSGTDFTLTISSVQAEDLADYFCLQHFGTPPTFGGGTKLEIKRTVAAPSVFIFPPSDEQLKSGTASVVCLLNNFYPREAKVQWKVDNALQSGNSQESVTEQDSKDSTYSLSSTLTLSKADYEKHKVYACEVTHQGLSSPVTKSFNRGEC
notes: Chimeric (murine variable domains, human IgG1/kappa constant regions); also called A9H12; chimeric antibody IMP731

Columns and labels:
[1] = biological target: T1, Recombinant baboon LAG-3 ECD-His6; test: SPR Biacore T100, antibody captured on Protein A, LAG-3 ECD-His6 analyte 0.0625-16 nM, 1:1 model, 37 C
Experimental: (§1) The binding cross reactivity of anti-LAG-3 humanised antibodies for both cynomolgus macaque (cyno) and baboon recombinant LAG-3 ECD-His6 (SEQ ID NOs 52 and 53, respectively) was assessed using the Biacore™ T100 (GE Healthcare).
(§2) Protein A was immobilised on a CM5 chip by primary amine coupling. This surface was then used to capture the humanised antibodies. In-house generated recombinant cynomolgus macaque and baboon LAG-3 ECD-His6 were then passed over the captured antibodies and regeneration was carried out using 50 mM NaOH. LAG-3 ECD-His6 was passed over at 16, 4, 1, 0.25 and 0.0625 nM. The binding curves were double referenced with buffer injection (i.e. 0 nM) and the data was fitted to the T100 analysis software using the 1:1 model. The run was carried out at 37° C. using HBS-EP as the running buffer.

[2] = biological target: T2, Recombinant cynomolgus macaque LAG-3 …; test: as above
Experimental: as §1, §2

[3] = biological target: T4, recombinant soluble human FcγRIIIa F158 (human, UniProt P08637 17-208); test: SPR ProteOn XPR36, His-tagged receptor captured on anti-poly-histidine IgG, antibody analyte 8-2048 nM, equilibrium model, 25 C
T4 construct: also called FcγRIIIa phenylalanine F158; CD16
T4 sequence (P08637 17-208 limits assumed): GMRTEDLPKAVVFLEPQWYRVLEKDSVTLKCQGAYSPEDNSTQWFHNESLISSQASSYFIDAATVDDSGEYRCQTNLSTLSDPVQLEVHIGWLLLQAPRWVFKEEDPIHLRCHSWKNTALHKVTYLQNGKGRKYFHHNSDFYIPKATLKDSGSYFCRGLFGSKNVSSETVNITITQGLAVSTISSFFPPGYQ
Experimental: (§3) A goat anti-poly-histidine IgG was immobilised on a GLM biosensor chip by primary amine coupling. This surface was used as a capture surface for the poly-histidine tagged human Fc gamma receptors. […] The goat anti-poly-histidine IgG surface was regenerated with 100 mM phosphoric acid between interactions. The run was carried out on the ProteOn XPR36 Protein Array Interaction System at 25° C. and using HBS-EP as running buffer. Data was analysed for each receptor separately, setting a global R-max and using the Equilibrium Model inherent to the ProteOn's analysis software. Control molecules were run at the beginning and the end of the set of samples to be tested to ensure comparability of results. Data was compared from two experiments and hybrid control antibodies used as controls between experiments.

[4] = biological target: T3, recombinant soluble human FcγRIIa R131; test: as above
Experimental: as §3

[5] = biological target: T5, recombinant soluble human FcγRIIIa V158 (human, UniProt P08637 17-208); test: as above
T5 construct: also called FcγRIIIa valine V158; CD16
T5 sequence (P08637 17-208 F176V limits assumed): as the sequence (P08637 17-208 limits assumed) above, with F160V counted along it
Experimental: as §3

[6] = biological target: T6, recombinant soluble human FcγRI (human, UniProt P12314 16-288, limits assumed); test: as above
T6 construct: also called CD64
T6 sequence (P12314 16-288 limits assumed): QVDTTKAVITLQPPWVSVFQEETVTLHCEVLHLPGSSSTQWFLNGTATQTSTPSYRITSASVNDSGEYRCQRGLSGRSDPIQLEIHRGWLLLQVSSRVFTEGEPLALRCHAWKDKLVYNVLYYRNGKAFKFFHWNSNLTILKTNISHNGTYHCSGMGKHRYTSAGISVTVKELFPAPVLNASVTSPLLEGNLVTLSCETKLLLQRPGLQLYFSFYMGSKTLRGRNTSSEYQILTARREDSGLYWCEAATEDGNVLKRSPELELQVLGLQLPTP
Experimental: as §3

[7] = biological target: T1, Recombinant baboon LAG-3 ECD-His6; test: SPR Biacore T100 (orthologues at 37 C, human at 25 C)
Experimental: (§4) Wild type fucosylated and afucosylated antibodies were compared for their ability to bind to recombinant human LAG-3 ECD with a C-terminal His6 (SEQ ID NO:51) using the Biacore™ T100 (GE Healthcare™). Protein A was immobilised on a CM5 chip by primary amine coupling. This surface was then used to capture the humanised antibodies. Recombinant human LAG-3 ECD-His6 was then passed over the captured antibodies at 32, 8, 2, 0.5 and 0.125 nM and regeneration was carried out using 50 mM NaOH. The binding curves were double referenced with buffer injection (i.e. 0 nM) and the data was fitted to the T100 analysis software using the 1:1 model. The run was carried out at 25° C., using HBS-EP as the running buffer.
as §2

[8] = biological target: T2, Recombinant cynomolgus macaque LAG-3 …; test: as above
Experimental: as §4, §2

Binder	Kd [1] [nM]	Kd [2] [nM]	Kd [3] [nM]	Kd [4] [nM]	Kd [5] [nM]	Kd [6] [nM]	fold improvement in affinity against human recombinant LAG-3 ECD-His6 [7] [fold]	fold improvement in affinity against human recombinant LAG-3 ECD-His6 [8] [fold]
B1	0.024	0.021	81.1	1490	21.8	26.4	10	10
B2	0.022	0.017	752	792	236	26.3	10	10
B3	0.019	0.021	1750	2620	406	39	~100	~100
